Source: PMC10833071

Target: TdsR receptor of E. coli (on cells) (E. coli (endogenous in E. coli cells))
Experiment: flow cytometry on cells

TepC-GFP (natural protein)
GFP-labeled cells: 33.1%
